According to patent publication US20200000929A1:

Molecular target: NPY2 receptor on HEK293/hNPY2R cells (human) (UniProt P49146)
Experiment: cell-based or functional assay

Sequence of NPY2 receptor on HEK293/hNPY2R cells (human) (P49146 whole entry): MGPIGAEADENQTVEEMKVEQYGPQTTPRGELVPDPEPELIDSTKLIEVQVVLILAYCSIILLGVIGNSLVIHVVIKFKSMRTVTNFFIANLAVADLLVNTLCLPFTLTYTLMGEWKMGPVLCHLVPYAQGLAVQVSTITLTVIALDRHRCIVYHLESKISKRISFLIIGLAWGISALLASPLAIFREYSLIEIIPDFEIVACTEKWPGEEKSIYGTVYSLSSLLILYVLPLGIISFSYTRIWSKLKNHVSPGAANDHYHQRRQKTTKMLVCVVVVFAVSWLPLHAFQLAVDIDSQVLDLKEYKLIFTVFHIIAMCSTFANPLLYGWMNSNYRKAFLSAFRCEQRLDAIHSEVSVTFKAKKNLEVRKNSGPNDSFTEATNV
Sequence of PYY(3-36) wild-type (peptide; modification not given) (chain, as listed by the source): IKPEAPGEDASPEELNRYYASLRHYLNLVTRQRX

PYY(3-36) wild-type (peptide; modification not given)
EC50 [nM], day 1, cAMP assay (inhibition of Forskolin stimulated cAMP accumulation in HEK293/hNPY2R cells): 0.09 nM | EC50 [nM], day2, cAMP assay (inhibition of Forskolin stimulated cAMP accumulation in HEK293/hNPY2R cells): 0.1 nM

moPYY, Y2receptor specific modified analog of PYY(3-36): Ac-Ile-Lys-Pqa-Arg-His-Tyr-Leu-Asn-Trp-Val-Thr-Arg-Gln-(NMe)-Arg-Tyr-NH2 (peptide)
EC50 [nM], day 1, cAMP assay (inhibition of Forskolin stimulated cAMP accumulation in HEK293/hNPY2R cells): 0.14 nM | EC50 [nM], day2, cAMP assay (inhibition of Forskolin stimulated cAMP accumulation in HEK293/hNPY2R cells): 0.15 nM
